Experimental data taken from publication PMC9399289, “Extended DNA-binding interfaces beyond the canonical SAP domain contribute to the function of replication stress regulator SDE2 at DNA replication forks”.
Changes are numbered by the printed parent chain.

Legend:
[1] = target: T1, GST-SDE2 ΔSAP+CTT (human, UniProt Q6IQ49 1-394, del395-451); assay: EMSA; 50-200 nM protein; EMSA: 10 mM Tris-HCl pH 7.5, 50 mM NaCl, 0.5 mM DTT, 0.05 mM EDTA, 3% glycerol, 0.05 mg/ml BSA (or 50 mM Na/K PO4 pH 6.0, 50 mM NaCl, 5 mM DTT), on ice; anisotropy: 50 mM Na/K PO4 pH 6.0, 50 mM NaCl, 5 mM DTT, 1 uM DNA; pull-down: 10 mM Tris-HCl pH 7.5, 100 mM NaCl, 0.2 mM EDTA, 1 mM DTT, 10% glycerol, 0.01% NP-40, 10 ug/ml BSA, RT; NMR: 50 mM Na/K phosphate, 50 mM NaCl, 5 mM DTT, 10% D2O; conditions: protein: recombinant; tags: N-term GST; label: 5' 6-FAM
T1 sequence: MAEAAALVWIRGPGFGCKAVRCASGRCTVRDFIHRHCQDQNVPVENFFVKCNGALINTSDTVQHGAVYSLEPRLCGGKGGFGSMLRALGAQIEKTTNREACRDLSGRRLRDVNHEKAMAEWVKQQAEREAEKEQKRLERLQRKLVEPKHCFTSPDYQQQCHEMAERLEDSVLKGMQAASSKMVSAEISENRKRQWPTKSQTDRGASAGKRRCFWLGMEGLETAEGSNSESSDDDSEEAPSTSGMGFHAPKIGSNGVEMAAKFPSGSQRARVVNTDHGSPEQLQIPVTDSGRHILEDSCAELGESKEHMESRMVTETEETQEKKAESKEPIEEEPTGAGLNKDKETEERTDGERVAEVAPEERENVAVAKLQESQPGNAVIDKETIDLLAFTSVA

[2] = target: T2, GST-SDE2SAP (human, UniProt Q6IQ49 350-451); assay: fluorescence anisotropy; EMSA: 10 mM Tris-HCl pH 7.5, 50 mM NaCl, 0.5 mM DTT, 0.05 mM EDTA, 3% glycerol, 0.05 mg/ml BSA (or 50 mM Na/K PO4 pH 6.0, 50 mM NaCl, 5 mM DTT), on ice; anisotropy: 50 mM Na/K PO4 pH 6.0, 50 mM NaCl, 5 mM DTT, 1 uM DNA; pull-down: 10 mM Tris-HCl pH 7.5, 100 mM NaCl, 0.2 mM EDTA, 1 mM DTT, 10% glycerol, 0.01% NP-40, 10 ug/ml BSA, RT; NMR: 50 mM Na/K phosphate, 50 mM NaCl, 5 mM DTT, 10% D2O; conditions: protein: recombinant; tags: N-term GST; label: 5' 6-FAM
T2 sequence: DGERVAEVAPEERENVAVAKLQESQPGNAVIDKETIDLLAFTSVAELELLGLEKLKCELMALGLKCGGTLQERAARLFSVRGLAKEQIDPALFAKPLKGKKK

[3] = target: T3, GST-SDE2-FLAG WT (human, UniProt Q6IQ49 1-451); assay: as above; conditions: protein: recombinant; tags: N-term GST, C-term FLAG; label: 5' 6-FAM
T3 sequence: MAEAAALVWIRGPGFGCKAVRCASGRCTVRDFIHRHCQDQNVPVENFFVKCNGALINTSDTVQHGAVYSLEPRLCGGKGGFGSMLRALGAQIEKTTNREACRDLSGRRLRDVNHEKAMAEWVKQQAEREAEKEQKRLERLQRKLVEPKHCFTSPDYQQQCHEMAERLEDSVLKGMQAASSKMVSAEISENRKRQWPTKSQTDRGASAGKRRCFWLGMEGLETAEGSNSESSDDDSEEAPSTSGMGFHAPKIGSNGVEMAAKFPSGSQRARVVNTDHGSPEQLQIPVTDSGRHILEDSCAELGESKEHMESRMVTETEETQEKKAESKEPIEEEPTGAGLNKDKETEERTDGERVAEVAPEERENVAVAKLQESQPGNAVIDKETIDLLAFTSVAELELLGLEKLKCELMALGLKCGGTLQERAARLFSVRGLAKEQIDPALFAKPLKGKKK

[4] = target: T4, GST-SDE2 CGTKK (human, UniProt Q6IQ49 1-451, C415A;G417S;T418V;K444A;K447A); assay: EMSA; 50-200 nM protein, 20 nM DNA; EMSA: 10 mM Tris-HCl pH 7.5, 50 mM NaCl, 0.5 mM DTT, 0.05 mM EDTA, 3% glycerol, 0.05 mg/ml BSA (or 50 mM Na/K PO4 pH 6.0, 50 mM NaCl, 5 mM DTT), on ice; anisotropy: 50 mM Na/K PO4 pH 6.0, 50 mM NaCl, 5 mM DTT, 1 uM DNA; pull-down: 10 mM Tris-HCl pH 7.5, 100 mM NaCl, 0.2 mM EDTA, 1 mM DTT, 10% glycerol, 0.01% NP-40, 10 ug/ml BSA, RT; NMR: 50 mM Na/K phosphate, 50 mM NaCl, 5 mM DTT, …; conditions: protein: recombinant; tags: N-term GST; label: 5' 6-FAM
T4 sequence: T3 sequence with C415A, G417S, T418V, K444A, K447A

[5] = target: T5, GST-SDE2-FLAG ΔSAP (human, UniProt Q6IQ49 1-451, del395-427); assay: EMSA; 200 nM protein, 50 nM DNA; EMSA: 10 mM Tris-HCl pH 7.5, 50 mM NaCl, 0.5 mM DTT, 0.05 mM EDTA, 3% glycerol, 0.05 mg/ml BSA (or 50 mM Na/K PO4 pH 6.0, 50 mM NaCl, 5 mM DTT), on ice; anisotropy: 50 mM Na/K PO4 pH 6.0, 50 mM NaCl, 5 mM DTT, 1 uM DNA; pull-down: 10 mM Tris-HCl pH 7.5, 100 mM NaCl, 0.2 mM EDTA, 1 mM DTT, 10% glycerol, 0.01% NP-40, 10 ug/ml BSA, RT; NMR: 50 mM Na/K phosphate, 50 mM NaCl, 5 mM DTT, …; conditions: protein: recombinant; tags: N-term GST, C-term FLAG; label: 5' 6-FAM
T5 sequence: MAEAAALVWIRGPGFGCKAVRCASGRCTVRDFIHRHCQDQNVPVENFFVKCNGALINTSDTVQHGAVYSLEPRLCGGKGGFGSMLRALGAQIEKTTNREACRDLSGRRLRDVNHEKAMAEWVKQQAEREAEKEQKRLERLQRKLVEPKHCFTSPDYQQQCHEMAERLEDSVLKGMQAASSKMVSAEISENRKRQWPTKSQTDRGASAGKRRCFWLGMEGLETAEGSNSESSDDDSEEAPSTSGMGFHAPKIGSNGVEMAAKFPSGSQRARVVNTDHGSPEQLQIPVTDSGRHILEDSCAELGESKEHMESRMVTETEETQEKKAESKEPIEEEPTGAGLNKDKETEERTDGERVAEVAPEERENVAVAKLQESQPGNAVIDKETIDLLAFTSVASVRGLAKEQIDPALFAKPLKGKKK

B1: 60-mer ssDNA (EMSA1) (ssDNA)
DNA: GACGCTGCCGAATTCTACCAGTGCCTTGCTAGGACATCTTTGCCCACCTGCAGGTTCACCC
Does B1 bind [1]?
Result: no binding

What about the Kd [2] of the same binder?
Its Kd is 1770 ± 410 nM.

What about the Kd [3] of the same binder?
The Kd was about 1100 nM.

Does B1 bind [4]?
Result: no binding

Does B1 bind [5]?
Result: no binding
